In patent US20200207841A1 (MIT, published 2020):
Like-named read-outs stand apart in the source and are kept apart here.

What was measured:
[1] = molecular target: T1, EDIII-DV3 (Dengue virus serotype 3 (DV3), UniProt Q6YMS3 579-671); test: SPR
T1 construct: also called EDIII of DV3; EDIII-DVIII

[2] = molecular target: T2, EDIII-DV1 (Dengue virus serotype 1 (DV1), UniProt P17763 581-673); test: SPR
T2 construct: also called EDIII of DV1; EDIII-DVI

[3] = molecular target: T3, EDIII-DV2 (Dengue virus serotype 2 (DV2), UniProt P14337 581-673); test: SPR
T3 construct: also called EDIII of DV2; EDIII-DVII

[4] = molecular target: T1, EDIII-DV3; test: SPR; remark: listed apart in the source
[5] = molecular target: T2, EDIII-DV1; test: SPR; remark: listed apart in the source
[6] = molecular target: T3, EDIII-DV2; test: SPR; remark: listed apart in the source
[7] = molecular target: T1, EDIII-DV3; test: competition ELISA
[8] = molecular target: T2, EDIII-DV1; test: competition ELISA
[9] = molecular target: T3, EDIII-DV2; test: competition ELISA
[10] = molecular target: DV1 (Dengue virus serotype 1, virus used in FRNT) (Dengue virus serotype 1 (DV1)); test: cell-based or functional assay
[11] = molecular target: DV2 (Dengue virus serotype 2, virus used in FRNT) (Dengue virus serotype 2 (DV2)); test: cell-based or functional assay
[12] = molecular target: DV3 (Dengue virus serotype 3, virus used in FRNT) (Dengue virus serotype 3 (DV3)); test: cell-based or functional assay
[13] = molecular target: T1, EDIII-DV3
[14] = molecular target: T2, EDIII-DV1
[15] = molecular target: T3, EDIII-DV2

B1: 4E11 WT (antibody, V domains shown)
VH: VKLLEQSGAELVKPGASVRLSCTASGFNIKDTYMSWVKQRPEQGLEWIGRIDPANGDTKYDPKFQGKATITADTSSNTAYLHLSSLTSGDTAVYYCSRGWEGFAYWGQGTLVTVSA
VL: ELVMTQTPASLAVSLGQRATISCRASENVDRYGNSFMHWYQQKAGQPPKLLIYRASNLESGIPARFSGSGSRTDFTLTINPVEADDVATYFCQRSNEVPWTFGGGTKLEIKR
notes: also called wt 4E11; mAb 4E11
Kd [1]: 7.58 nM | Kd [2]: 0.5 nM | Kd [3]: 6.2 nM | koff [4]: 0.0102 s⁻¹ | kon [4]: 1.34e+06 M⁻¹ s⁻¹ | koff [5]: 0.000551 s⁻¹ | kon [5]: 1.11e+06 M⁻¹ s⁻¹ | kon [6]: 1.98e+06 M⁻¹ s⁻¹ | Kd [7]: 21.8 nM | Kd [8]: 0.328 nM | Kd [9]: 5.2 nM | IC50 (read off the curve): neutralisation, relative infectivity against [4E11] [10]: ~0.06 µg/mL | IC50 (read off the curve): neutralisation, relative infectivity against [4E11] [11]: ~0.03 µg/mL | IC50 (read off the curve): neutralisation, relative infectivity against [4E11] [12]: ~0.5 µg/mL | Kd [13]: 21.8 nM | Kd [14]: 0.328 nM | Kd [15]: 5.2 nM
